Bridges are numbered along the chain shown (N, C = ends).
Target: T1, purified human fibrinogen (Homo sapiens, UniProt P02671+P02675+P02679)
T1 construct: purchased Calbiochem 341576
T1 sequence (P02671 20-629 limits assumed): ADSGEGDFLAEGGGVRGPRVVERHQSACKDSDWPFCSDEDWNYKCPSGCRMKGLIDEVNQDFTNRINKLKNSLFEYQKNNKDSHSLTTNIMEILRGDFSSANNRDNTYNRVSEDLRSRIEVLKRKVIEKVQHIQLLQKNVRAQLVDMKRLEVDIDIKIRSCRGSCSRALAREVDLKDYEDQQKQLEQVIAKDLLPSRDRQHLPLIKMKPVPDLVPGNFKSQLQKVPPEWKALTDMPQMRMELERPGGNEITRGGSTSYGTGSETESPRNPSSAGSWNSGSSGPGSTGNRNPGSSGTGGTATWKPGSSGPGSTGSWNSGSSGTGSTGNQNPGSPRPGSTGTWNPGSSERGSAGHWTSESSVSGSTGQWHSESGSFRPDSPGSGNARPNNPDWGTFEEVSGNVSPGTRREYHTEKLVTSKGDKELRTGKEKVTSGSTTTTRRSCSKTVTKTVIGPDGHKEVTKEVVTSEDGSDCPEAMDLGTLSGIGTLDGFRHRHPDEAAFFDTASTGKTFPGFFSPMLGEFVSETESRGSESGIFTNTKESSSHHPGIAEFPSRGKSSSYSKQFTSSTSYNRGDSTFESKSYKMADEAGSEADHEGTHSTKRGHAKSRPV
T1 sequence (P02675 31-491): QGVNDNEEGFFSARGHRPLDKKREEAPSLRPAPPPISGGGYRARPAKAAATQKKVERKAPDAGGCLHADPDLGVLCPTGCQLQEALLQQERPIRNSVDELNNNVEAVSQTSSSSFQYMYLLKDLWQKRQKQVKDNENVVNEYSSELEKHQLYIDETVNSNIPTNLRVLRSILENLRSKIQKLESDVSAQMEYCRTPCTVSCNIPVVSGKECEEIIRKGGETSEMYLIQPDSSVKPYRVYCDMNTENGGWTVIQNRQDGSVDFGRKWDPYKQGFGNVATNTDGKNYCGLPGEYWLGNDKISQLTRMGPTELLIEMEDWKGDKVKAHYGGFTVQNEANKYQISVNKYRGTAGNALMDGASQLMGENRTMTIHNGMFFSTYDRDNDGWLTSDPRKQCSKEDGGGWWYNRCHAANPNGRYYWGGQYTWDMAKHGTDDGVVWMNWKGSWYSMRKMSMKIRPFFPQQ
T1 sequence (P02679 27-433 limits assumed): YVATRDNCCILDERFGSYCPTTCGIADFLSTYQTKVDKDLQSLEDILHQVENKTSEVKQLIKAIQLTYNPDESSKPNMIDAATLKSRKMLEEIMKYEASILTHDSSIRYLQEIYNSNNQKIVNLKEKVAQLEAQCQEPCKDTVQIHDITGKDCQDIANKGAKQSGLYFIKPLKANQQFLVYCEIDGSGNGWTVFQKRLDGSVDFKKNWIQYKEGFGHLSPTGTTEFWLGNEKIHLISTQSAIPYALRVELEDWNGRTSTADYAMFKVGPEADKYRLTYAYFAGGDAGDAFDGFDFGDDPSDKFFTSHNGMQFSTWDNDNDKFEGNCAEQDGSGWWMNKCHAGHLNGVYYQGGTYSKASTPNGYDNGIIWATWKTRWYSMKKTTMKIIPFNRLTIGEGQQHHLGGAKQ
Assay: Purified fibrinogen binding capacity of fibrinogen binding columns
Settings: purified fibrinogen 0.5 mg/ml in PBS injected continuously, eluted with glycine 0.1M pH 2.5
Protocol: FIG. 1 is a chromatogram illustrating the purified fibrinogen binding capacity of a fibrinogen binding column utilizing the fibrinogen binding peptide of SEQ ID NO:48 and having a ligand density of 2.0 μM/ml resin. Purified fibrinogen (0.5 mg/ml in PBS) was injected continuously onto the column until the A280 reading reached a plateau. The column was then washed with PBS until a baseline reading was obtained and then eluted with glycine buffer (0.1M, pH 2.5). The eluted fraction (major peak) was collected and analyzed by HPLC Size Exclusion Chromatography (SEC). The capacity of the column was calculated to be 2.076 mg fibrinogen/ml resin.
FIG. 2 is a chromatogram illustrating the purified fibrinogen binding capacity of a fibrinogen binding column utilizing the fibrinogen binding peptide of SEQ ID NO:48 and having a ligand density of 4.0 μM/ml resin. Purified fibrinogen (0.5 mg/ml in PBS) was injected continuously onto the column until the A280 reading reached a plateau. The column was then washed with PBS until a baseline reading was obtained and then eluted with glycine buffer (0.1M, pH 2.5). The eluted fraction (major peak) was collected and analyzed by HPLC Size Exclusion Chromatography (SEC). The capacity of the column was calculated to be 4.1 mg fibrinogen/ml resin. […]

SEQ ID NO:48: fibrinogen binding polypeptide containing the cyclic core peptide of SEQ ID NO: 43 (Ac-AEGTGSLYLCNSYPMHPYCNPGK-NH2; disulfide 10-19 (inferred))
fibrinogen binding capacity of the column (ligand density 2.0 μM/ml resin): 2.076 mg fibrinogen/ml resin
fibrinogen binding capacity of the column (ligand density 4.0 μM/ml resin): 4.1 mg fibrinogen/ml resin
